For assay [1], the target named is BA.2.12.1 spike protein (pseudovirus) (SARS-CoV-2). Description: cell-based or functional assay.
Assay [2] addresses SARS-CoV-2 Alpha spike protein (authentic virus) (SARS-CoV-2, UniProt P0DTC2 14-1273). As to the kind of experiment: cell-based or functional assay.
The target in assay [3] is SARS-CoV-2 BA.2 spike protein (authentic virus) (SARS-CoV-2, UniProt P0DTC2 14-1273). Description: cell-based or functional assay.
Assay [4] deals with T1, SARS-CoV-2 BA.2.12.1 spike protein (authentic virus) (SARS-CoV-2, UniProt P0DTC2 14-1273). Description: cell-based or functional assay.
For assay [5], the target named is SARS-CoV-2 BA.5 spike protein (authentic virus) (SARS-CoV-2, UniProt P0DTC2 14-1273). Description: cell-based or functional assay.
The target of assay [6] is SARS-CoV-2 BA.1 spike protein (authentic virus) (SARS-CoV-2, UniProt P0DTC2 14-1273). As to the kind of experiment: cell-based or functional assay.
In assay [7] the target is SARS-CoV-2 BA.1.1 spike protein (authentic virus) (SARS-CoV-2, UniProt P0DTC2 14-1273). Description: cell-based or functional assay.
The target in assay [8] is SARS-CoV-2 D614G spike protein (authentic virus) (SARS-CoV-2, UniProt P0DTC2 14-1273). Description: cell-based or functional assay.
The target of assay [9] is SARS-CoV-2 spike RBD point mutant K444A (SARS-CoV-2, UniProt P0DTC2 334-526).
Assay [10] concerns the target SARS-CoV-2 spike RBD point mutant F486A (SARS-CoV-2, UniProt P0DTC2 334-526).
The target in assay [11] is Delta spike protein (pseudovirus) (SARS-CoV-2). Description: cell-based or functional assay.
Assay [12] addresses D614G spike protein (pseudovirus) (SARS-CoV-2). Description: cell-based or functional assay.
Assay [13] deals with BA.2 spike protein (pseudovirus) (SARS-CoV-2). As to the kind of experiment: cell-based or functional assay.
In assay [14] the target is Omicron (BA.1) spike protein (pseudovirus) (SARS-CoV-2). As to the kind of experiment: cell-based or functional assay.
For assay [15], the target named is BA1.1 spike protein (pseudovirus) (SARS-CoV-2). Description: cell-based or functional assay.
Assay [16] addresses T1, SARS-CoV-2 BA.2.12.1 spike protein …. Description: cell-based or functional assay. The source holds these as a separate data set.

The term Kd denotes the equilibrium constant for the complex coming apart. Lower therefore signals tighter binding.

B1: RQ43-GL-H-LO1 (TM-YTE) (antibody, V domains shown)
VH: EVQLVESGGGLVQPGRSLRLSCAASGFPFDDYAIHWVRLAPGKGLEWVSSISWDSGSIGYADSVKGRFTISRDNAKNSLYLQMNSLRAEDTALYYCAKGAFPGYSSGWYYGLEVWGQGTTVTVSS
VL: QSVVTQPPSASGSLGQSVTISCTGTSSDVGGYNYVSWYQQHPGKAPKLMIFEVSKRPSGVPDRFSGSKSGNTASLTVSGLQAEDEADYYCSSYAGNKGVFGGGTKLTVL
On to B1, for which the “IC50 (read off the curve), pseudovirus with BA.2.12.1 spike” value in assay [1] is approximately 0.008 µg/mL. The “Authentic Virus Neutralization IC50” value in assay [2] is 0.06 µg/mL; in assay [3] it was 0.031 µg/mL; in [4], 0.028 µg/mL; in assay [5] it was 0.017 µg/mL; in assay [6], 0.011 µg/mL; in assay [7], 0.007 µg/mL. In addition, the “Authentic Virus Neutralization IC50” value in [8] stood at 0.099 µg/mL.

B2: RQ43 (TM-YTE) (antibody, V domains shown)
VH: EVQLLETGGGLVQPGRSLRLSCAASGFPFDDYAIHWVRLAPGKGLEWVSSISWDSGSIGYADSVKGRFTISRDNAKNSLYLQMNSLRAEDTALYYCAKGAFPGYSSGWYYGLDVWGQGATVTVSS
VL: QSVVTQPPSASGSLGQSVTISCTGTSSDVGGYNYVSWYQQHPGKAPKLMIFEVSKRPSGVPDRFSGSKSGNTASLTVSGLQAEDEADYYCSSYAGNKGVFGGGTKLTVL
Consider B2, for which the Kd in assay [9] and in [10] was less than 0.001 nM throughout. The “EC50, pseudovirus neutralization” value in assay [11] stood at 0.0259 µg/mL; in assay [12], 0.0158 µg/mL; in [13], 0.0105 µg/mL; in assay [14], 0.0078 µg/mL; in assay [15] it was 0.006 µg/mL.

B3: RQ40 (TM-YTE) (antibody, V domains shown)
VH: EVQLVESGAEVKKPGSSVKVSCKASGGTFSSYAINWVRQAPGQGLEWMGGIIPIFRTPHYAQKFQGRVTITADESTGTAYMELSSLRSEDTAVYYCASPSCGGDCPQYLKSSKLDWYFDLWGRGTLVTVSS
VL: VIWMTQSPGTLSLSPGERATLSCRASQSVSSTYLAWYQQKPGQAPRLLIYGASSRATGIPDRFSGSGSGTDFTLTISRLEPEDFAVYYCQHYGSSPLTFGQGTRLEIK
For B3, the equilibrium dissociation constant (Kd) in assay [9] was less than 0.001 nM; in [10], 47.1 nM. Also, the “EC50, pseudovirus neutralization” value turned out to be 0.0112 µg/mL in [11]; 0.0099 µg/mL in assay [12]; 0.007 µg/mL in assay [13]; 0.0064 µg/mL in assay [14]; 0.0042 µg/mL in assay [15].

B4: RQ33 (TM-YTE) (antibody, V domains shown)
VH: QVQLQESGPGLVKPSETLSLTCTVFGGSITSSNHYWVWIRQPPGKGLEWIGSMYYSGSTAYNPSLTNRVTISVDTSKNQFSLKLSSVTAADTAVYYCARQIGPKRPSQVADWFDPWGQGTLVTVSS
VL: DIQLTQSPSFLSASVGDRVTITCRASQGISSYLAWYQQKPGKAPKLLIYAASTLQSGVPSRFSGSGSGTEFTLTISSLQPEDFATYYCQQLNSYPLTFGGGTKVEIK
B4: the Kd stood at 3.13 nM in assay [9] and 3.28 nM in [10]. Moreover, in assay [16], the “IC50 (read off the curve), FRNT, authentic BA.2.12.1 virus” value is approximately 0.5 µg/mL. The “IC50 (read off the curve), pseudovirus with BA.2.12.1 spike” value in assay [1] is approximately 0.05 µg/mL. For the same molecule, the “EC50, pseudovirus neutralization” value in assay [11] worked out at 0.205 µg/mL; in assay [12], 0.191 µg/mL; in assay [13] it was 0.0797 µg/mL; in assay [14], 0.0045 µg/mL; in assay [15], 0.0031 µg/mL.

B5: RQ41 (TM-YTE) (antibody, V domains shown)
VH: EVQLVESGGGLIQPGGSLRLSCAASEIIVSRNYMSWVRQAPGKGLEWVSVIYSGGSTFYADSVKGRFTISRDNSKNTLYLQMNSLRAEDTAVYYCARDLDVVGGTDYWGQGTLVTVSS
VL: not shown
Take B5: the “EC50, pseudovirus neutralization” value is 0.0182 µg/mL in [11]; 0.011 µg/mL in assay [12]; 0.0126 µg/mL in assay [13]; 0.0062 µg/mL in [14]; 0.0039 µg/mL in assay [15].

Values taken from patent publication US20250289871A1 (AstraZeneca / MedImmune, published 2025).
